Test: soluble on expression in E. coli; label from the status in PepcDB or PDB records

Sequence | soluble on expression in E. coli
MGLLALGTPLQWFESRTYNEHIRDEGIEQLLYIFQAAGKRDNDPLFWGDELEYMVVDFDDKERNSMLDVCHDKILTELNMEDSSLCEANDVSFHPEYGRYMLEATPASPYLNYVGSYVEVNMQKRRAIAEYKLSEYARQDSKNNLHVGSRSVPLTLTVFPRMGCPDFINIKDPWNHKNAASRSLFLPDEVINRHVRFPNLTASIRTRRGEKVCMNVPMYKDIATPETDDSIYDRDWFLPEDKEAKLASKPGFIYMDSMGFGMGCSCLQVTFQAPNINKARYLYDALVNFAPIMLAFSAAAPAFKGWLADQDVRWNVISGAVDDRTPKERGVAPLLPKYNKNGFGGIAKDVQDKVLEIPKSRYSSVDLFLGGSKFFNRTYNDTNVPINEKVLGRLLENDKAPLDYDLAKHFAHLYIRDPVSTFEELLNQDNKTSSNHFENIQSTNWQTLRFKPPTQQATPDKKDSPGWRVEFRPFEVQLLDFENAAYSVLIYLIVDSILTFSDNINAYIHMSKVWENMKIAHHRDAILFEKFHWKKSFRNDTDVETEDYSISEIFHNPENGIFPQFVTPILCQKGFVTKDWKELKHSSKHERLYYYLKLISDRASGELPTTAKFFRNFVLQHPDYKHDSKISKSINYDLLSTCDRLTHLDDSKGELTSFLGAEIAEYVKKNKPSIESKCDKLAAALGHHHHHH | soluble
MHTILILGAGPAGAAVALGLRRLGYPVTLVSDWRRFPALEGVSLRVLEALRGAGLEQALAQALQPSQRRVAWNGAEHAQNIEYLLDRPAFDRGLREALREAQVKLIEGRVLGVQSSEAGHRVQVQGQGEVRGEFLVEARGRQAPVLDKALRQGGGKGLRGPETVSLLNRWQGPGGSATSAVHSLEDGWAWMARREDGQCYWQLTLDVESAGLPGKAQLLEYCRQRRLGSAMAREFFAGGQEQQLHLHARSSTAILNPQACGANWLRVGDAAMAVDPLSGNGIFQSLSSALQAPAVINTLLQQPQRAALAQRFHGQRVEQLFLRFARIGRDFYADEQRWPEQPFWQARRQWPDCQPAHIAVDFSALRIERAPVLRDGLVDEAEVVITPDQPLGIWHVQGVELAPLLRRLRSQGAAQALAQLSPDQNRLIRSWLLAQGYRPLEHHHHHH | not soluble
MVKKAAATSKQATYHSDEIEMKEEVVLNTYDECTDYVEYDDTKQFDINEYCDQIQVAMVNESDDGMTLEFDITRIEAPIANALRRVLIAEVPTMALEKIYLYQNTSVIQDEVLCHRLGLLPLRVDPRGFQFPKEKVVGINEKGVDCDEEPEGDPAKNLIFKINVSCTKNRNAVPTATDPKQLYHNSSVYSRAFEWVPIADQKTQFTEEAHPRMVSDDILVAKLRPGQEIEASCHAVKGIGRDHAKFSPVATASYRLLPTIRLNAEISGEAAERLKSVFSEGVIAIEKKGAKRIAVVKDARKDTCSRNVFRHEDLSKVVQLGKNKQHFIFSVESTGALKSSELVVEACKVMEIKCRSLRKQIEALIQ | not soluble
MNDFYVTLPSSVKNAQFENTSSRYVTRLPQVLHLEKDEYSVAVTDIIYPYSFVNLGRPLNYWIHFKNREPINVTFPAAQYDDLPHVVNSLNGVQKPRMKRGAPLILENEQVKRPKSDEPLSERDVIINKIRELEAKAKKDEEERIAREKEEKNKQREKHLATHKKAEEFAKKVQTDKDEQREKHLDTHKKAEQNAQDNQKYHDEERKKHIETQKKAEENEEKRRAKEKADRDAHVARHKQAEALEKKKREQEEKQKNEDRERATQKERREHIERHRQAEARAKALEKEKHEQEEKQKKENLERAEKERHDHIERQRQAEARAKALEQEKQEEKQKNEDRERATQKERREHLERHRQAEARAKALEKEKHERLQQEAKDKEDERARDKARKDAKAREEAKSREDVKAEKVAIDPKQVVNIPGKVYASQEAKKIIEKVNELEKQERDKIVSKVRESEAIEKEAVRASSEYHDVALKIFQKPNDRNIYDELKLSFERIRSRIKVSHFENSSDYLQFGEKDGRVSIDFLDSNILFEEFEKSCAYFLGFHDTIVRESSLAPSKIDYFGNVSTIYLYCDIVDPIIVGDSKNSLLSVIPCKGKYGEMIHHTIPHPRYLPIMNSTIDSIKIELLSEFAEPINFNWGSTVIVLHFKKI | not soluble
MSSSVLSVAKFDLKKMKTVYLKVDMEYDNRKNAALAILSKLSRDLLKICSNFGGCLARPQRDLCTIMLIIDSDKLENEHLVKHLKEHHMTAFEYIFTKKIKIQIGECFVQDGFLWWKQTNLPRIRNLKFRKKFKIKNKISEIHTHCSSEGNVYIKFSAEMIRIHPFDHWILDSDERFHDFNSGPISRRIRPRWVSCLPKLGKGRIVKIHRKIPETAPFESYDQMKSYWKKTKYEFVFQYGYDLPPSEPEVYYDVLFHNGETMLYPLYCVLTGTPEVLENRVGKTMTSEALALFLKAFKEASIVICGSVLAPEDQDCQAVKAYLDVMSMSAINSSKLKKEEKVTRKSSGGGHEEHQKPYEIRKIYPKIPVGVKRSISSSSQSGLPIVKKARPGFSVSVD | not soluble
MYRKEWQDPDRIVDQLPISPGFDIVDLGCGPGFFTLPLASRTDGKVYAVDASDEMIEILKERIDGHSNIIPVKARAENIPIPDGTVDLVFIANAFHDFDDRDAVLGEIYRILRDGGYLVDIDWKKDETTHGPPVDIRIDRKDALLLISSHNFDIVKEIEAGAHHYGLLFRKN | not soluble
MATKFNRILVGVDDSADALLAFDYAIHQAKQDGAELVIISILENDEMNVYQALSKDYIHGERQELEQHILKYQKQAQAAGVTKVHAMIAEGEPGETIVKEVIPHVQPDLLIIGSLAKKGIAKHFGSQAAYMAKYAPISVLVIR | not soluble
MKFEYEYMETPEDLLMSLSAGFAMAMRNIATVYSYKGYLSYYTPAMSDGEELTMFVTLTKGELAPGLIDFDSENKRIEHVKKATNPEAYHFLVIRPQISTVLDKAIYDFEKSRNQP | not soluble
MAHHHHHHMPQKPLFFIYFFFFQDTPDFGGVDTQTNNNNKKRGFTRDGRGKLAGGDAHSRRDRRMRLRGWGHTAFQTRLNGSRCWGSRGASSASQCVALRSASSSFSMSTSRSPFDAVYVINLNRRPDRWKFILRQLQRAGFREGEYERFTAVDGRAVDIQKAQACGLVSLLGILRLREEESRRIWGMDLNPAAVGCALSHVLLWATIAARRYHRVLVVEDDSLFPHDFQKKYDERMRHVPQDWELVYVSGLDTADQTSQLRVAEGVSRVPQMHRTTNCYVVTHHGARRLLELCLPMTYQLDTMMTMHAVSDPQSGVPHVTSPVCYTLQPPLVVQATRMGSDIQSSNGRDEQEEERARCRAAGWTTD | soluble
PRLTRRLTGFLPQEIKSIDTMIPLLSRALWNKHQVKKFNKAEDFQDRFIDHVETTLARSLYNCDDMVAYEAASMSIRDNLVIDWNKTQQKFTTRDPKRVYYLSLEFLMGRALDNALINMKIEDPEDPAASKGKPREMIKGALDELGFKLEDVLDQEPDAGLGNGGLGRLAACFVDSMATEGIPAWGYGLRYEYGIFAQKIIDGYQVETPDYWLNSGNPWEIERNEVQIPVTFYGYVDRPEGGKTTLSASQWIGGERVLAVAYDFPVPGFKTSNVNNLRLWQARPTTEFDLNKFNNGDYKNSVAQQQRAESITAVLYPNDNFAQGKELRLKQQYFWCAASLHDILRRFKKSKRPWTEFPDQVAIQLNDTHPTLAIVELQRVLVDLEKLDWHEAWDIVTKTFAYTNHTVMQEALEKWPRRLFGHLLPRHLEIIYDINWFFLEDVAKKFPKDVDLLSRISIIEENSPERQIRMAFLAIVGSHKVNGVVELHSELIKTTIFKDFIKFYGPSKFVNVTNGITPRRWLKQANPSLAKLISETLNDPTEEYLLDMAKLTQLEKYVEDKEFLKKWNQVKLNNKIRLVDLIKKENDGVDIINREYLDDTLFDMQVKRIHEYKRQQLNVFGIIYRYLAMKNMLKNGASIEEVARKYPRKVSIFGGKSAPGYYMAKLIIKLINCVADIVNNDESIEHLLKVVFVADYNVSKAEIIIPASDLSEHISTAGTEASGTSNMKFVMNGGLIIGTVDGANVEITREIGEDNVFLFGNLSENVEELRYNHQYHPQDLPSSLDSVLSYIESGQFSPENPNEFKPLVDSIKYHGDYYLVSDDFESYLATHELVDQEFHNQRSEWLKKSVLSLANVGFFSSDRCIEEYSDTIWNVEPVT | soluble
MSLNAQNAGINFLHGTTWAEAVAKAKAENKLIFIDFYTQWCGPCMNMAQTVFSLPTVGYYYNQTFINLKIDAEEGEGITLAKKYGVRSYPTYAFVDPATEEIVHRSSSRQTPEQFIQTGKDANIPTKRSFYLQEQYTKGNRERAFLIDYINYHYSVYARNNVQAAFDELIKGGAKLTDPDVWEVYVNTINGMNPYLKQVSDNYADFCQRFGKKAVDAKLAKETSYGELAEIEALCNYEGKDFNLKMIRINNDIREQKYEAAATQIDAMIADTTVNQQELISRLKFIARLGYKAEELPEFWFNKCVGYLQYIAYNQTDRDDAFIHQEYAAALEMVLRKLNGKAPIPACLSTEPAYGKKVYNMRPDALKMKPKREGHHHHHH | soluble
MNLNIDWSKDFQEFQEILNSGIHPEWLYCAKANLVLEPAYTGEGKQFFSTQDIIYASKIIPFFLEHHHHHH | not soluble
MARLCTHTESGHYLMALDAGTGSVRAVIFDLQGKQIAVGQAEWQHLAVPDVPGSMEFDLAKNWQLACQCIRQALQKAAIPATAIAAVSACSMREGIVIYDSNGEPIWACANVDARAAHEVSELKELYDNTFEEEVYRCSGQTLALSAIPRLLWLAHHRPDIYHRASTVTMISDWMAFMLSGELAVDPSNAGTTGLLDLVTRNWKRSLLQMAGLRSDILSPVKETGTLLGHISQKAAEQCDLQAGTPVIVGGGDVQLGCLGLGVVRPAQTAVLGGTFWQQVVNLPAPVTDPNMNVRINPHVIPGMVQTESISFFTGLTMRWFRDAFCAEEKLIAERLGIDAYSLLEDMASRVPPGAYGVMPIFSDVMRFKRWYHAAPSFINLSIDPEKCNKATLFRALEENAAIVSACNLQQIAAFSGVQADSLVFAGGGSKGKLWSQILADVTGLTVHVPVVKEATALGCAIAAGVGVGVWPSLAETGEKLVRWDREHKPNPENFAVYQQAREKWQAVYQDQRALVDGGLTTSLWKAPGL | not soluble
MGSDKIHHHHHHMFVTELRFECFADTSIEAAEKAINNFLEALRANGQVLGREFAVAFNDGEFRVRLLIPERSSLANRYNSPWVKVALNGLTEAKILAPREKFIGQDINSEASNTHQPSWQLLYTSYVHMCSPLRNGDNLLPIPLYQIPATFNGDHKRMIKWQSEWQACDELQMAAATKAEFAALDEISNTDSDLFRRGWDLRGRIEYLTKIPTYYYLYRVGGESLNAELSRPCPKCGSLEWKLAEPLLDMFQFRCEPCRIVSNLSWDHQ | not soluble
MSLRFVFDIDGTLCFDGRLIDQTIIDTLLQLQHDGHELIFASARPIRDLLPVLPSVFHQHTLIGANGAMISQQSKISVIKPIHTDTYHHILKIIQKYELDYIIDDDWNYAAQLDAENAIFERLDPHKLASCIDVANIDTPIKIILLNIDPAQITTILDELNKYHQELEMIHHSNEYNIDITAQNINKYTALQYIFDADVKYIAFGNDHNDIFMLQHASSGYIIGPSEAYTHAILKLDKIKHINNNTQAICKVLKSYKEGHHHHHH | soluble
RERVKKEIKDLEKAKDFTEELIEKVKKYKALAREAALSKIGELASEIFAEFTEGKYSEVVVRAEENKVRLFVVWEGKERPLTFLSGGERIALGLAFRLAMSLYLAGEISLLILDEPTPYLDEERRRKLITIMERYLKKIPQVILVSHDEELKDAADHVIRISLENGSSKVEVVS | soluble
MGSDKIHHHHHHMNIQKVTFRNADMAWDMAALILLPEGFDESKRYPTMVSVHPFGSCKEQTSSAVYGKALAELGYVVIAFDASFQGESGGSPRYVEDPSQRVEDISRVIDYAVSLPYVDEDRIGGLGICGGGAYIFSSALTEKRLKAVVGITPVNLGRLFREGFSQYNPIGALEAMATQRTAEARGAELQVNELLPPSPEFAKQNGMTERDLFEATDYYKTPRGQAEGGATRMLFSHAQKTLSWDAFAFVETLMTQPMMAVVGQKLGAFGAYRDGHEVYGRSIVSKDRQLVELQDWSHYDLYDHPQAVSLAMEKIGPFLSQHL | not soluble
